Reference: paper PMC8163800, “Extreme parsimony in ATP consumption by 20S complexes in the global disassembly of single SNARE complexes” (Nature Communications, 2021)

B1: NSF-SNAP tag (wild-type NSF with a C-terminal SNAP tag), labelled hexamer (enzyme, Chinese hamster)
chain: MAGRSMQAARCPTDELSLSNCAVVSEKDYQSGQHVIVRTSPNHKYIFTLRTHPSVVPGSVAFSLPQRKWAGLSIGQEIEVALYSFDKAKQCIGTMTIEIDFLQKKNIDSNPYDTDKMAAEFIQQFNNQAFSVGQQLVFSFNDKLFGLLVKDIEAMDPSILKGEPASGKRQKIEVGLVVGNSQVAFEKAENSSLNLIGKAKTKENRQSIINPDWNFEKMGIGGLDKEFSDIFRRAFASRVFPPEIVEQMGCKHVKGILLYGPPGCGKTLLARQIGKMLNAREPKVVNGPEILNKYVGESEANIRKLFADAEEEQRRLGANSGLHIIIFDEIDAICKQRGSMAGSTGVHDTVVNQLLSKIDGVEQLNNILVIGMTNRPDLIDEALLRPGRLEVKMEIGLPDEKGRLQILHIHTARMRGHQLLSADVDIKELAVETKNFSGAELEGLVRAAQSTAMNRHIKASTKVEVDMEKAESLQVTRGDFLASLENDIKPAFGTNQEDYASYIMNGIIKWGDPVTRVLDDGELLVQQTKNSDRTPLVSVLLEGPPHSGKTALAAKIAEESNFPFIKICSPDKMIGFSETAKCQAMKKIFDDAYKSQLSCVVVDDIERLLDYVPIGPRFSNLVLQALLVLLKKAPPQGRKLLIIGTTSRKDVLQEMEMLNAFSTTIHVPNIATGEQLLEALELLGNFKDKERTTIAQQVKGKKVWIGIKKLLMLIEMSLQMDPEYRVRKFLALLREEGASPLDFD
modifications: BG-Alexa647 or BG-DY549 dye on the SNAP tag
notes: N-ethylmaleimide sensitive factor (NSF), Chinese hamster, wild type; also called DY549-labeled NSF; SNAP-tag-labeled WT; source: expressed from pET28a in autoinduction LB medium, purified (Ni-NTA, Superdex 200); not shown: SNAP tag (GGSG linker), C-terminal, kept
B2: SNAP-tag-αSNAP labelled with BG-Alexa647 (natural protein, bovine, UniProt P81125 1-295, looked up)
chain: MDNSGKEAEAMALLAEAERKVKNSQSFFSGLFGGSSKIEEACEIYARAANMFKMAKNWSAAGSAFCQAAHVHLQLQSKHDAATCFVDAGNAFKKADPQEAINCLMRAIEIYTDMGRFTIAAKHHISIAEIYETELVDIEKAIAHYEQSADYYKGEESNSSANKCLLKVAGYAAQLEQYQKAIDIYEQVGTNAMDSPLLKYSAKDYFFKAALCHFCIDMLNAKLAVQKYEELFPAFSDSRECKRIKKLLEAHEEQNVDSYTEAVKEYDSISRLDQWLTTMLLRIKKTIQGDEEDLR
modifications: BG-Alexa647 dye on the SNAP tag
notes: alpha-soluble NSF attachment protein (αSNAP), bovine; also called SNAP-tag-fused αSNAPs; Alexa647-labeled αSNAP; source: expressed in LB medium with IPTG, purified (Ni-NTA, Superdex 200); not shown: SNAP tag (GGSGGSG linker), N-terminal, kept

Experiments:
[1] = biological target: the molecule itself; assay: SEC; Superdex 200 16/600 in NSF buffer (50 mM HEPES pH 7.4, 150 mM NaCl, 1 mM DTT, 1 mM ATP, 1 mM EDTA, 10% glycerol)
[2] = biological target: B1; assay: single-molecule fluorescence co-localisation with counting of photobleaching steps (TIRF); SNARE vesicles (1:30,000 protein/lipid) held on NeutrAvidin; 100 nM SNAP-tag-αSNAP, then 1 nM Dylight549-labelled NSF with 1 mM ATP and 1 mM EDTA; H50N50 buffer; conditions: both partners purified

Row | Binder | stoichiometry N [1] | binding result [2]
1 | B1 | 6 | 
2 | B2 |  | binds
